Legend:
[1] = target: endogenous NMDAR of mouse primary neurons and microglia (mouse (endogenous in primary neurons and microglia)) (UniProt P35438); test: proximity ligation; in situ PLA on primary neurons from APP_(Sw,Ind) transgenic embryos; percent of cells with red dots and dots per cell counted (Figure 5C,D)
[2] = target: endogenous NMDAR of mouse primary neurons and microglia (mouse (endogenous in primary neurons and microglia)) (UniProt P35438); test: proximity ligation; in situ PLA on primary neurons from non-transgenic control embryos; percent of cells with red dots and dots per cell counted (Figure 5C,D)
[3] = target: NMDAR reconstituted from GluN1Rluc and GluN2B (human) (UniProt Q05586); test: FRET or BRET; BRET^2 saturation in HEK-293T cells: constant GluN1-RLuc and GluN2B cDNA, increasing NCS1-GFP^2 cDNA; 5 uM Deep Blue C
[4] = target: endogenous NMDAR of mouse primary neurons and microglia (mouse (endogenous in primary neurons and microglia)) (UniProt P35438); test: proximity ligation; in situ PLA on primary microglia from non-transgenic control mice; percent of cells with red dots and dots per cell counted (Figure 6B,C)
[5] = target: endogenous NMDAR of mouse primary neurons and microglia (mouse (endogenous in primary neurons and microglia)) (UniProt P35438); test: proximity ligation; in situ PLA on primary microglia from APP_(Sw,Ind) transgenic mice; percent of cells with red dots and dots per cell counted (Figure 6B,C)
[6] = target: GluN1Rluc expressed without GluN2 (human) (UniProt Q05586); test: FRET or BRET; BRET^1 saturation in HEK-293T cells: constant GluN1Rluc cDNA (0.3 ug) without GluN2, increasing cDNA of the YFP-fused calcium sensor

endogenous NCS1 of mouse primary neurons and microglia (from UniProt Q8BNY6 1-190) (natural protein)
PLA clusters per cell (clusters per cell) [1]: 5.5
percent of neurons with PLA complexes [1]: 68%
PLA clusters per cell (clusters per cell) [2]: 2
percent of neurons with PLA complexes [2]: 21%

NCS1GFP^2 fusion protein (from UniProt P62166 1-190) (natural protein)
BRET50 [3]: 35

endogenous calmodulin of mouse primary neurons and microglia (from UniProt P0DP26 1-149) (natural protein)
PLA red dots per cell containing dots (red dots/cell containing dots) [4]: 3
percent of microglial cells with PLA complexes [4]: 35%
PLA red dots per cell containing dots (red dots/cell containing dots) [5]: 6
percent of microglial cells with PLA complexes [5]: 65%
percent of neurons with PLA complexes [2]: 77%

NCS1YFP fusion protein (from UniProt P62166 1-190) (natural protein)
BRET50 [6]: 30

CaM-YFP fusion protein (from UniProt P0DP23 1-149) (natural protein)
BRET50 [6]: 3.5

B1: endogenous calneuron-1 of mouse primary neurons (natural protein)
chain: MRLPEQPGDGKPENETKGDQETPERGEEPRRSPAPDFPTWEKMPFHHVTAGLLYKGNYLNRSLSAGSDSEQLANISVEELDEIREAFRVLDRDGNGFISKQELGMAMRSLGYMPSEVELAIIMQRLDMDGDGQVDFDEFMTILGPKLVSSEGRDGFLGNTIDSIFWQFDMQRVTLEELKHILYHAFRDHLTMKDIENIIINEEESLNETSGNCQTEFEGVHSQKQNRQTCVRKSLICAFAMAFIISVMLIAANQILRSGME
percent of neurons with PLA complexes [2]: 14%

From article PMC6127644
